Measurements from the DeepSol protein solubility set.

test: soluble on expression in E. coli; label from the status in PepcDB or PDB records

| Sequence | soluble on expression in E. coli |
| --- | --- |
| MATANEHLVAWLRDAHAMEEQAITMLTSQSSRLENYPELKTRIDRHLQETKDQAAMLERCLERLDGGTSSIKDISGKIVAFGQGLSGLFVSDEVVKGTLASYTFEHMEIASYRILIAAAEQAGDQETKRVCESILQQEIAMAEWLAQNAGEITRKFLERDQRDVTAKH | not soluble |
| MATDRENLLSDDYEETAAFCGCGYFRSFSFTRWRRGDDESRSRGGWSGCLQEERRGNWGSEKLKGLKEISEKIAGPKWKNFIRSFSSGRKKMRRDVDFTYDLKNYSLNFDDGGDGKDSSPERFVAPVVIKV | not soluble |
| MATEGMILTNHDHQIRVGVLTVSDSCFRNLAEDRSGINLKDLVQDPSLLGGTISAYKIVPDEIEEIKETLIDWCDEKELNLILTTGGTGFAPRDVTPEATKEVIEREAPGMALAMLMGSLNVTPLGMLSRPVCGIRGKTLIINLPGSKKGSQECFQFILPALPHAIDLLRDAIVKVKEVHDRSHHHHHH | soluble |
| MATFKDFRNSVKPNWCPGCGDFSVQAAIQRAAANVGLNPDELAVISGIGCSGRISGYINSYGVHSIHGRALPIAQGVKMANRDLTVIASGGDGDGFAIGMGHTIHSIRRNIDITYIVMDNQIYGLTKGQTSPRSEAGFKTKSTPQGSIEPSLNVMEMALTAGATFVAQSFSSDLKELTQIIEAGINHKGFSLINVFSPCVTYNKVNTYDWFKENLTKLSTVEGYDPSNRMMAMQTLMENNGLVTGLIYQNTKQPSYQELVKGYSEEPLVKSDLNMDQKMFDELVAEFM | not soluble |
| MATFVRNAWYVAALPEELSEKPLGRTILDTPLALYRQPDGVVAALLDICPHRFAPLSDGILVNGHLQCPYHGLEFDGGGQCVHNPHGNGARPASLNVRSFPVVERDALIWIWPGDPALADPGAIPDFGCRVDPAYRTVGGYGHVDCNYKLLVDNLMDLGHAQYVHRANAQTDAFDRLEREVIVGDGEIQALMKIPGGTPSVLMAKFLRGANTPVDAWNDIRWNKVSAMLNFIAVAPEGTPKEQSIHSRGTHILTPETEASCHYFFGSSRNFGIDDPEMDGVLRSWQAQALVKEDKVVVEAIERRRAYVEANGIRPAMLSCDEAAVRVSREIEKLEQLEAARLEHHHHHH | soluble |
| MATGSGSLIWFRKGLRVHDNPALEYASKGSEFMYPVFVIDPHYMESDPSAFSPGSSRAGVNRIRFLLESLKDLDSSLKKLGSRLLVFKGEPGEVLVRCLQEWKVKRLCFEYDTDPYYQALDVKVKDYASSTGVEVFSPVSHTLFNPAHIIEKNGGKPPLSYQSFLKVAGEPSCAKSELVMSYSSLPPIGDIGNLGISEVPSLEELGYKDDEQADWTPFRGGESEALKRLTKSISDKAWVANFEKPKGDPSAFLKPATTVMSPYLKFGCLSSRYFYQCLQNIYKDVKKHTSPPVSLLGQLLWREFFYTTAFGTPNFDKMKGNRICKQIPWNEDHAMLAAWRDGKTGYPWIDAIMVQLLKWGWMHHLARHCVACFLTRGDLFIHWEQGRDVFERLLIDSDWAINNGNWMWLSCSSFFYQFNRIYSPISFGKKYDPDGKYIRHFLPVLKDMPKQYIYEPWTAPLSVQTKANCIVGKDYPKPMVLHDSASKECKRKMGEAYALNKKMDGKVDEENLRDLRRKLQKDEHEESKIRNQRPKLK | soluble |
| MATIIPTAWQPFKSETPLTTFPFRFPAEWEPQSAILIAWPHANTDWSAHLADVEETYIALVAAITRFQMVIICVLDDDLQTYTEARLRSASVAMQQVRFTVASYNDTWLRDSGPITLIGTNRDFRLLDFRFTGWGGKFEAKADDQLVSVLHANGLFKNTQMHSINFALEGGAIETDGAGTLLTTWRCLHERHPQRTRKTLDANLTAWLAQNRVLWLEHGYLEGDDTDAHIDTLARFASTDSIVYQSCDNTTDSHYAELQAMANELTALRTTEGRAYRLFPLPWTKPILDQDRRLPASYANFLIIEGAVLMPTYDDPADTIAQSVLAEAFP | not soluble |
| MATLYDVPPEELIEALTETLADEDDIEAPDWAEFTKTGVDRELPPEQEDFWTRRAASLLRKVAVDGPVGVNALRSEYGTSKQGTTRYRVRPHQKTKGSGNIIRTALQQLEDAGYVETSENDGRRVTGDGRSLLDDTAGDLLTELDRPELERYALEHHHHHH | soluble |
| MATNIGMMDSAYFVGRNEILTWINDRLHLNLSRVEEAASGAVQCQMLDMTFPGVVPMHKLVDLKISTDLLEKERDFYFSKLRDVEILCQTPELDDLPVNVSVEPIVVAVKKILYATDANESALEDAQEYLNQSLGVEDDEAEGNGEQLEEEKTQA | soluble |
| MATPDTSAAKMAGQDRQKLKVVAWLQNLVERLKGWTPGHCQKLFDEKELIQLCYRAREVFWKNNVKLELKAPVKICGDLHGQYEDLLALLELNGWPPETKYLFLGDYVDRGPFSIEVISLLFAYQVLHPDKVFLLRGNHESRPVNMQYGFFMECRKRFSNALYDAFQLAFYCMPLCAVVSDKIICMHGGISEDLVDLRQLDKVERPCDVPDIGVIADLTWADPDATIQMYAESQRGAGRVFGAEAVKKFLNTHHLELVVRAHQVVMDGYEFFADRQLVTIFSAPSYCGQMDNAAAVMTVDEELVCSFTVMRPDLKKDKEKKAAVGIVPN | not soluble |
| MATRLLRTNFIRRSYRLPAFSPVGPPTVTASTAVVPEILSFGQQAPEPPLHHPKPTEQSHDGLDLSDQARLFSSIPTSDLLRSTAVLHAAAIGPMVDLGTWVMSSKLMDASVTRGMVLGLVKSTFYDHFCAGEDADAAAERVRSVYEATGLKGMLVYGVEHADDAVSCDDNMQQFIRTIEAAKSLPTSHFSSVVVKITAICPISLLKRVSDLLRWEYKSPNFKLSWKLKSFPVFSESSPLYHTNSEPEPLTAEEERELEAAHGRIQEICRKCQESNVPLLIDAEDTILQPAIDYMAYSSAIMFNADKDRPIVYNTIQAYLRDAGERLHLAVQNAEKENVPMGFKLVRGAYMSSEASLADSLGCKSPVHDTIQDTHSCYNDCMTFLMEKASNGSGFGVVLATHNADSGRLASRKASDLGIDKQNGKIEFAQLYGMSDALSFGLKRAGFNVSKYMPFGPVATAIPYLLRRAYENRGMMATGAHDRQLMRMELKRRLIAGIA | not soluble |
| MATSFPVLCLPNKNIRDVLQNMSTCNLIAFSLCSKATKSHVMHLKNDIQQISIKAFLSIDINILSHNQEVTSLVFFKKDYGRWNFESCESVTATETLTPLEPESDRVWVKRGFKLRDWIDHVMEIFNCSRIHEIYISRIGHEEHYISLSNAVKELKTETIFFSFCSDTVVQSVVANVQSNDISFNLSFNIEPSMQKHKVLTRHFERVSFSKDDTREALTLNDLLITNVSQLNISAHHLSFEELNIFIRHLISGSNRRLKIVGIVCAEATRNMQILLKGISHSVYSAELKIVARNENDYQLGDTIYVYQNCGRRLAMQTYLFEGVEKIVMRVY | not soluble |
| MATSRFQAFLNSPIGPKTTHFWGPIANWGFVAAGLVDMQKPPEMISGNMSSAMCVYSALFMRFAWMVQPRNYLLLACHASNETVQLYQLSRWARAQGYLSSKKEEEKPSQ | not soluble |
| MATYLIGDVHGCYDELIALLHKVEFTPGKDTLWLTGDLVARGPGSLDVLRYVKSLGDSVRLVLGNHDLHLLAVFAGISRNKPKDRLTPLLEAPDADELLNWLRRQPLLQIDEEKKLVMAHAGITPQWDLQTAKECARDVEAVLSSDSYPFFLDAMYGDMPNNWSPELRGLGRLRFITNAFTRMRFCFPNGQLDMYSKESPEEAPAPLKPWFAIPGPVAEEYSIAFGHWASLEGKGTPEGIYALDTGCCWGGSLTCLRWEDKQYFVQPSNRHKDLGEGEAVAS | soluble |
| MAVDVPGIISPKTAEAASQLTDGIGGRAYLNSNGAILVTKIQLPSSTQVSNGTAYIYSGFSGGTESDIGFQYSDKYNVWKPYMKVGSKGQDQVQYLEGGSQFTNTKGFRPGSTVQLTIYKNLNGNTRATYWGTNNAGYNGRLISEISKTNVGSISKWKALATVATTGSRQSIKSNFSTSFTNITIDNKAITPVIDTQDFAKVTVSGNSVSLSVVKNLEHHHHHH | soluble |
| MAVLAALLRSGARSRSPLLRRLVQEIRYVERSYVSKPTLKEVVIVSATRTPIGSFLGSLSLLPATKLGSIAIQGAIEKAGIPKEEVKEAYMGNVLQGGEGQAPTRQAVLGAGCDGGRWDGEHVHVPYVMNRGSTPYGGVKLEDLIVKDGLTDVYNKIHMGSCAENTAKKLNIARNEQDAYAINSYTRSKAAWEAGKFGNEVIPVTVTVKGQPDVVVKEDEEYKRVDFSKVPKLKTVFQKENGTVTAANASTLNDGAAALVLMTADAAKRLNVTPLARIVGKARRGGSHL | not soluble |
| MAVNVYSTSVTSENLSRHDMLAWVNDSLHLNYTKIEQLCSGAAYCQFMDMLFPGCVHLRKVKFQAKLEHEYIHNFKVLQAAFKKMGVDKIIPVEKLVKGKFQDNFEFIQWFKKFFDANYDGKDYNPLLARQGQDVAPPPNPGDQIF | soluble |
| MAVPAASSIVSYGGAATSNFLTTPVTPFLAGFYNSNFVTDRINSCAPYRVDRIRKQLQDEEENGYPPADDRRRGALFCRSGTWLEMLPIENPDDGSTRVKVHGTKEESSKFSIVEFVSVAMSLVSIRGVETKNFICMDPSGKLYATPSSNYSTECVFLEEMMENYYNLYASCAYGDRFNPWYIELRRSGKPRRGPNSKKRRKASHFLVVHHDLDRLRSPVPNGNDVTDLVVASLFHQPPSHPLFRQQTVTKPPNPHRISNLRAKVEMTNQAEKQRLLEEKKRRREKKKRRREDRLRKEEQIREARRQELKSLREEELRRRYQQQQQQQASTQTRYNRPQNPANPYPTYRPLPTRSTVQSPRPAYNPYWQSPVTQAPHHNSHHHHHHHPRVSSSSDPQQRHQSQQHYLAQTVSNPNRQNVNYQRYP | not soluble |
| MAVPGFTFDEALLTEIAASFQLRASNINALTALVQRLSGDFDRSTPQVMNMATGAGKTYVMAAFIEYMRRQGLRNVMIVTPGLVVQTKTVANFTQGSPKFIDGSPVPPRVVTPENYKSNPADQTAFTEQGASNVYVFNVQQLIGPKDMDGDTTSGSKAAVARGVHKFSEYAGVLYDELKNMDDLVVLADEHHLYSAKAKAFHAAIHDLEPAALVGLTASPGEKDETIFTYPLYKAIADKNVKQPVIVYRKDGYGELGEYQQLKDAKTLLETKAGHYAVKNQEEGTSPISPVMLVVCEDIAHATRIEETLVGPDLFGDPYAVLRVDSDSMNEEKAALLDAIDTPDSPVRAVVSVNKLKEGWDCRSIAVMVTLRAMDSDILTQQTLGRGLRLPYGKYAEVEAIDTLDIVAHESFQRLLSSEKVNKSFGFDKRKTSQPAPPQPVHPMDVTPPTPVPTPDLDPVPGGNTTAPTPVLPPADPQPVAPDLDKGTDTRPPLGLKELGGDGASPEDLYPEPTPLAVVELVEKFRDVSFLFPRTTYTAKNAAYPLEKLMQDEIIQVARQITDNPQAVLERLALAGDEAQGRVMAKRLTQGTIDAIALDEDAVKKQLVGAIITHRRVERSPENISQAKNRIAPLIYNNALATTWTVDTLHVASILLGKAIDASVRQFLANLEPDVTLVPLTMPTRTRFELGVGKTIEPRPGEFDKYINGQFYSGWTRNLYTAASFDSNSAEHKLACDLDVSPDVEWWTRLYMADGASIDYQVGKTYYPDFVVRDREGRTWIVEGKDAGGRTNEEVKAKRDAAELALNLMASNEDMGALKVGYIIAYEDTIKEAGSWSRLISMSGAVKSAN | not soluble |
| MAVTREDLEQNRLRAALGDSPVASTLLTEAALEASLASTLARLSAAPCEGQDAWVFGYGSLIWNPMIFHTEVARATVRGYHRGFYLYSRINRGTWDNPGLVLGLDRGGSCSGVAFRVPRAHAEREFRVLWRREMLTGAYLPRWLPTEIHGERILALAFVMNRTHEAYAGRLPDERVVGCLHKAVGLYGPAREYLQRTLIGLASNGLHDPYLDRLWQRLQAMDINAANAPSQTADTDGTGPLPDPYLSALEHHHHHH | not soluble |
| MAVVAHTEEDVKLLARLMRAEAEGDGRLGMLMVGNVGVNRVIADCLDFRGIRSIRQMVFQSPGGFEAVQKGYFYQRAREVDIGLARQVLRGWRYHPATNALWFFKPPEGQECPPQWFNQWNVGRYKSHCFFAPTPSDCPRVY | not soluble |
